Literature values in article PMC4660202.

Target: IZUMO1 ECD (Mus musculus) (UniProt Q9D9J7)
UniProt Q9D9J7, sequence (Q9D9J7 22-319): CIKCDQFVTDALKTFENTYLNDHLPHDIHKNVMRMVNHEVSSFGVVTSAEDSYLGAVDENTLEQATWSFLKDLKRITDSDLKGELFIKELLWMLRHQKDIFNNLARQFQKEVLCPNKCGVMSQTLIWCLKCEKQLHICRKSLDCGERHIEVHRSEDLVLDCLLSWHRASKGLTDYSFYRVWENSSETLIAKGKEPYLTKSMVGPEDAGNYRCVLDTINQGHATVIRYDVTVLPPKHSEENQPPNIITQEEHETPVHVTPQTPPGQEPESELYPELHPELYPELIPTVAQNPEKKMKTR

## JUNO (from UniProt Q9EQF4)
  Kd: 12.3 µM
